{"source": "paper doi:10.1101/2022.09.01.506260", "binders": {"B1": {"name": "full length CrkII, dimer (CrkII^FL dimer), P46108-1 1-304 (natural protein)", "chain": "MAGNFDSEERSSWYWGRLSRQEAVALLQGQRHGVFLVRDSSTSPGDYVLSVSENSRVSHYIINSSGPRPPVPPSPAQPPPGVSPSRLRIGDQEFDSLPALLEFYKIHYLDTTTLIEPVSRSRQGSGVILRQEEAEYVRALFDFNGNDEEDLPFKKGDILRIRDKPEEQWWNAEDSEGKRGMIPVPYVEKYRPASASVSALIGGNQEGSHPQPLGGPEPGPYAQPSVNTPLPNLQNGPIYARVIQKRVPNAYDKTALALEVGELVKVTKINVSGQWEGECNGKRGHFPFTHVRLLDQQNPDEDFS"}, "B2": {"name": "human 14-3-3ε, P62258-1 1-255 (natural protein)", "chain": "MDDREDLVYQAKLAEQAERYDEMVESMKKVAGMDVELTVEERNLLSVAYKNVIGARRASWRIISSIEQKEENKGGEDKLKMIREYRQMVETELKLICCDILDVLDKHLIPAANTGESKVFYYKMKGDYHRYLAEFATGNDRKEAAENSLVAYKAASDIAMTELPPTHPIRLGLALNFSVFYYEILNSPDRACRLAKAAFDDAIAELDTLSEESYKDSTLIMQLLRDNLTLWTSDMQGDGEEQNKEALQDVEDENQ"}}, "key": {"[1]": {"target": "full length CrkII, dimer (CrkII^FL dimer) (human), P46108", "test": "SEC", "conditions": "remark: other sources report otherwise"}, "[2]": {"target": "T1, human 14-3-3ε (human), P62258", "T1 chain": "B2 chain", "test": "crystal structure", "conditions": "remark: other sources report otherwise"}}, "data": [{"binder": "B1", "values": [{"measurement": "percent of the total isolated protein that is dimer", "setting": "[1]", "result": 10, "unit": "%"}, {"measurement": "stoichiometry N", "setting": "[1]", "result": 2}]}, {"binder": "B2", "values": [{"measurement": "stoichiometry N", "setting": "[2]", "result": 2}]}]}
